Data taken from article PMC9107221 (Journal of Nanobiotechnology, 2022).
Substitutions are numbered along the chain they refer to.

T1: P10-LKIQVSLQIG (Chikungunya virus, SL-CK1)
T1 construct: 10-mer of the Chikungunya/SL-CK1 E2 glycoprotein, residues 46 to 55, domain A
T1 chain: LKIQVSLQIG

T2: P61-GEEPNYQEEW (Chikungunya virus, SL-CK1)
T2 construct: 10-mer of the Chikungunya/SL-CK1 E2 glycoprotein, domain C; printed as residues 331 to 340 in the results and as 301-310 in the discussion
T2 chain: GEEPNYQEEW

B1: 1D1 (Nb-1D1) (VHH)
VHH: AVQLVESGGGLVQAGGSLRLSCEASGHTFSSGTMGWFRQAPGMEREFVARINEKGDGTFYADSVKGRFTISRDYAKNTVYLQMNTLKPEDTAVYYCVADRGTVYGTREDLYDYWGQGTQVTVSS
B2: 4G10 (Nb-4G10) (VHH)
VHH: B1 VHH with S30N, A75T
B3: Chikungunya/SL-CK1 E2 glycoprotein (natural protein)
chain: not shown
notes: E2 glycoprotein of Chikungunya virus strain SL-CK1, recombinant, about 40 kD on the blot; also called CHIKV E2; E2 protein; source: bought: Sino Biological
B4: 3E9 (Nb-3E9) (VHH)
VHH: AVQLVESGGGLVQAGGSLSLSCAASGRTFSAGTMGWFRQAPGKERELIARVIKNGGSTYYTDSVKGRFTIAADFAKSTVYLQMNSLKPEDTALYYCAADRGAVFGTRQELYDDWGQGTQVTVSS
B5: 2A3 (Nb-2A3) (VHH)
VHH: AVQLVESGGGLVPTGGSLRLSCTASGRTDNLYTVGWFRQAPGKERELIARITEKGGPTYYADSVKGRFSISTHKSKNAIYLQMNSVKPEDTAVYYCVADRGTVYGTREDLYDYWGQGTQVTVSS
B6: 1A12 (Nb-1A12) (VHH)
VHH: AVQLVESGGGLVQAGGSLRLSCAASGRALTSGTMGWFRQAPGKEREFVARANVKGDGTFYADAVKGRFTISRDYAKNTVYLQMNNLKPEDTAVYFCAADRGTVYGTSEDLYDYWGQGTQVTVSS
B7: 1C11 (Nb-1C11) (VHH)
VHH: AVQLVESGGGLVLAGASLRLSCADSGSGRSLGTYGWFRQAPGKEREFVARISQRGGIDYTDSVKGRFTISRDNSKNTVNLQMTTLTPEDTAVYYCAADPDTVYSRSPALWKYWGQGTQVTVSS
B8: 1F1 (Nb-1F1) (VHH)
VHH: AVQLVESGGGLVQAGGSLRLSCAASGRSFSAYTMAWFRQAPGKEREWMASIVRSGGPTYYADSVKDRFTISRENARNTVYLQMNSLKPEDTAVYYCAADLGWTYSRSPELFGSWGQGTQVTVSS
B9: MoNb-3C5 (VHH)
VHH: B8 VHH with V79A
notes: About 28 kDa with the His-SUMO tag; detected through SUMO (anti-SMT3) or the His tag; also called monovalent VHH antibody Nb-3C5; SUMO-tagged VHH; not shown: His6, N-terminal, kept; SUMO, N-terminal, kept
B10: MoNb-2E8 (VHH)
VHH: B8 VHH with P108R
notes: About 28 kDa with the His-SUMO tag; detected through SUMO (anti-SMT3) or the His tag; also called monovalent VHH antibody Nb-2E8; SUMO-tagged VHH; not shown: His6, N-terminal, kept; SUMO, N-terminal, kept
B11: 2B4 (Nb-2B4) (VHH)
VHH: B8 VHH with F29S
B12: 2F7 (Nb-2F7) (VHH)
VHH: AVAGESGGGVVQAGGSLRLSCAASGRTFSPYAMGWFRQAPGKERESVAAISWSAGDTYYADSVKGRFTISRDNAKNTVYLQMNSLKPEDTAVYYCASRNTYFSDSGYSNFYAYDYWGQGTQVTVSS
B13: 4C7 (Nb-4C7) (VHH)
VHH: AVQLVESGGGLVQAGGSLRLSCATSGRTLGTYGWFRQAPGKEREFVARFLRNNGLTEYADSVKGRFTISRDDAKNTVELQMIMLKPEDTAVYYCTADPDAVYSRSPALWVYWGQGTQVTVSS
B14: 1H3 (Nb-1H3) (VHH)
VHH: AVQLVESGGGLVQAGGSLRLSCAASVHTFTMPTMGWFRQAPGKGRELVARFNANINSTYYGDSVKGRFTISRDFAKNTVYLHMSSLRPEDTAVYYCVADRGVVFGTREDLYDYWGQGTQVTVSS
B15: 4C1 (Nb-4C1) (VHH)
VHH: B14 VHH with G42E, V103F
B16: 1H7 (Nb-1H7) (VHH)
VHH: AVQLVESGGGLVQAGGSLRISCLASGPPFTDYTMGWFRQAPGKEREFVARITNHGGGTHYADSVKGRFTISRDYATNTVYLQMNSLKPEDTAVYYCAADRGAVYGTREDLYDYWGQGTQVTVSS
B17: 4H6 (Nb-4H6) (VHH)
VHH: B16 VHH with A14P, R19G, L23V, M34L, D73E
B18: 1G6 (Nb-1G6) (VHH)
VHH: AVQLVESGGGLVQAGGSLRLSCAASGRTFSTYTMGWFRQAPGKEREFVARIIENTGNIYYADSVKGRFTISEDNAKNTLYLQMNNLKPEDTAVYYCVGDRGAVYGTRPDLYDHWGQGTQVTVSS
B19: 1E1 (Nb-1E1) (VHH)
VHH: AVQLVESGGGLVETGESLRLSCAASGRTIENYHVGWFRQTSGPEREFLAATSRGNGISTIADSVKGRFTISRDNAKNTVYLQMNALKPEDTAVYICAADDANFVNYRSYRAWDNWGQGTQVTVSS
B20: 2B5 (Nb-2B5) (VHH)
VHH: B19 VHH with E13Q, T14A, E16G
B21: 4F8 (Nb-4F8) (VHH)
VHH: AVQLVESGGGTAQAGGPLRLSCKASGRSFSVGTMAWFRQVPGKEREFLVRDSQKGDGTVYAGSVEGRFTISRDYAKNTMDLQMNSLKPEDTAVYYCAADRGTVYGTREDLYDYWGQGTQVTVSS

Tests used:
[1] = target: B3
[2] = target: T3, BiNb-2E8 (alpaca); test: SPR; LSPR (OpenSPR, Nicoya): E2 protein immobilised on a COOH chip by EDC/NHS, antibodies flowed at 20 uL/min in PBS pH 7.4, 240 s binding, 360 s dissociation, One to One model; details: both partners purified
T3 construct: VHH Nb-2E8, as the VHH of m1; flexible linker, printed as (GGGGS) x 3; VHH Nb-2E8, second copy, as the VHH of m1; Read here as two VHH in tandem on one chain; also called bivalent Nb-2E8; homo-dimer Nb-2E8 fused to Fc; source: HEK293 cells, pcDNA 3.4, purified (protein A)

[3] = target: T4, BiNb-3C5 (alpaca); test: as above; details: both partners purified
T4 construct: VHH Nb-3C5, as the VHH of m2; flexible linker, printed as (GGGGS) x 3; VHH Nb-3C5, second copy, as the VHH of m2; In the sandwich ELISA it was coupled with horseradish peroxidase (HRP Conjugation Kit); also called bivalent Nb-3C5; homo-dimer Nb-3C5 fused to Fc; source: HEK293 cells, pcDNA 3.4, purified (protein A)

[4] = target: T5, TriNb-2E8 (alpaca); test: as above; details: both partners purified
T5 construct: VHH Nb-2E8, as the VHH of m1; flexible linker, printed as (GGGGS) x 3; VHH Nb-2E8, second copy, as the VHH of m1; VHH Nb-2E8, third copy, as the VHH of m1; also called trivalent Nb-2E8; homo-trimer Nb-2E8 fused to Fc; source: HEK293 cells, pcDNA 3.4, purified (protein A)

[5] = target: T6, TriNb-3C5 (alpaca); test: as above; details: both partners purified
T6 construct: VHH Nb-3C5, as the VHH of m2; flexible linker, printed as (GGGGS) x 3; VHH Nb-3C5, second copy, as the VHH of m2; VHH Nb-3C5, third copy, as the VHH of m2; also called trivalent Nb-3C5; homo-trimer Nb-3C5 fused to Fc; source: HEK293 cells, pcDNA 3.4, purified (protein A)

[6] = target: T7, E2 glycoprotein of Chikungunya/human/China/GD134/2010, on virions and in infected Vero cells (Chikungunya virus …); test: […]; antibodies 10 ug/mL, […]; details: one partner purified
T7 construct: also called CHIKV virion; CHIKV virus

[7] = target: T1, P10-LKIQVSLQIG; test: ELISA; peptide ELISA: each 10-mer peptide coated at 1 ug/mL in carbonate buffer pH 9.6, 2 ug/mL antibodies, HRP anti-6xHis; details: both partners purified
[8] = target: B3; test: SPR; LSPR (OpenSPR, Nicoya): E2 protein immobilised on a COOH chip by EDC/NHS, antibodies flowed at 20 uL/min in PBS pH 7.4, 240 s binding, 360 s dissociation, One to One model; details: both partners purified
[9] = target: T2, P61-GEEPNYQEEW; test: ELISA; peptide ELISA: each 10-mer peptide coated at 1 ug/mL in carbonate buffer pH 9.6, 2 ug/mL antibodies, HRP anti-6xHis; details: both partners purified

Binder | binding result [1] | also measured
B1 | binds | 
B2 | binds | 
B3 |  | Kd [2]: 2.59 nM; Kd [3]: 20.7 nM; Kd [4]: 4.52 nM; Kd [5]: 10.4 nM
B4 | binds | 
B5 | binds | 
B6 | binds | 
B7 | binds | 
B8 | binds | 
B9 |  | binding result [6]: binds; binding result [7]: binds; Kd [8]: 368 nM
B10 |  | binding result [6]: binds; binding result [9]: binds; Kd [8]: 101 nM
B11 | binds | 
B12 | binds | 
B13 | binds | 
B14 | binds | 
B15 | binds | 
B16 | binds | 
B17 | binds | 
B18 | binds | 
B19 | binds | 
B20 | binds | 
B21 | binds | 
